Changes are numbered by the printed parent chain.
Experiments:
fibrin aggregates [1] = target: T1, fibrin aggregates (Homo sapiens, UniProt P02671); experiment: synergistic dissolving of fibrin aggregates with tissue plasminogen activator tPA; assay type: biochemical; details: 2 nM tPA plus different doses, added after 1 h of fibrin formation
T1 construct: Thrombin cleaves the α and γ subunits of fibrin, exposing fibrinopeptide A (Knob A) and fibrinopeptide B (Knob B)
T1 sequence (P02671 36-866 limits assumed): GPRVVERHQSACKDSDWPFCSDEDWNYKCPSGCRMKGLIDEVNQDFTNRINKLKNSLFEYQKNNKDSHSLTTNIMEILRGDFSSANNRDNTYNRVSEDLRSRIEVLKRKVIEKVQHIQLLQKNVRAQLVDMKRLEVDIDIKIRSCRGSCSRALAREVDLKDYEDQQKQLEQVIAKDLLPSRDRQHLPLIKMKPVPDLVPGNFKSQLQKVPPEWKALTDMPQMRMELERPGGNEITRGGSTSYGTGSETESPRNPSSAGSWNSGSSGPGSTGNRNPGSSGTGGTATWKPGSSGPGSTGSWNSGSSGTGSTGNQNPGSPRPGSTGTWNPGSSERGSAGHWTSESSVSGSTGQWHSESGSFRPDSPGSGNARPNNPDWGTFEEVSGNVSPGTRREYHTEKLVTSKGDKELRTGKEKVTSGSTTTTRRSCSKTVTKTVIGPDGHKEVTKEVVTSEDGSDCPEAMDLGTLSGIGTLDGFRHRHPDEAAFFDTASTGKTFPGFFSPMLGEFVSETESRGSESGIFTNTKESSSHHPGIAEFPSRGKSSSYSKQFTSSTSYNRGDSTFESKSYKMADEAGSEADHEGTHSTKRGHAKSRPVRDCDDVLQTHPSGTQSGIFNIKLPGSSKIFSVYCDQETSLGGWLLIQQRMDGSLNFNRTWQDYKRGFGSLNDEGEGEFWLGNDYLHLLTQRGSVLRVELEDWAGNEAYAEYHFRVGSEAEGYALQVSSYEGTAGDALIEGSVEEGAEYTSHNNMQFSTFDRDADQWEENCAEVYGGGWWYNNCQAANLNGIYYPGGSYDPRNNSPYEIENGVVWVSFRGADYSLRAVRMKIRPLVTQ
T1 sequence (P02675 45-491 partner limits assumed): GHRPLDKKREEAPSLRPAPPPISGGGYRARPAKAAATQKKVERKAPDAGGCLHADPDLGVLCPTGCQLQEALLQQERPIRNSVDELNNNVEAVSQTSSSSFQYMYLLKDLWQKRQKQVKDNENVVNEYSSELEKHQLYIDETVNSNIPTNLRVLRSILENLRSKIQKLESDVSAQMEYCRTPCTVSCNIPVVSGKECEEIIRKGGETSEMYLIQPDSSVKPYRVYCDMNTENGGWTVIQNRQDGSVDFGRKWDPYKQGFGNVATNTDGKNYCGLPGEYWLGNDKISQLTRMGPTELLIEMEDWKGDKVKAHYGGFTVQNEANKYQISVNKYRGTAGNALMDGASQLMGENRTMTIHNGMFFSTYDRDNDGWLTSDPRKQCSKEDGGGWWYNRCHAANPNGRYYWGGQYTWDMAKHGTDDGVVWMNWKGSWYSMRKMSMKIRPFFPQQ
T1 sequence (P02679 27-453 partner): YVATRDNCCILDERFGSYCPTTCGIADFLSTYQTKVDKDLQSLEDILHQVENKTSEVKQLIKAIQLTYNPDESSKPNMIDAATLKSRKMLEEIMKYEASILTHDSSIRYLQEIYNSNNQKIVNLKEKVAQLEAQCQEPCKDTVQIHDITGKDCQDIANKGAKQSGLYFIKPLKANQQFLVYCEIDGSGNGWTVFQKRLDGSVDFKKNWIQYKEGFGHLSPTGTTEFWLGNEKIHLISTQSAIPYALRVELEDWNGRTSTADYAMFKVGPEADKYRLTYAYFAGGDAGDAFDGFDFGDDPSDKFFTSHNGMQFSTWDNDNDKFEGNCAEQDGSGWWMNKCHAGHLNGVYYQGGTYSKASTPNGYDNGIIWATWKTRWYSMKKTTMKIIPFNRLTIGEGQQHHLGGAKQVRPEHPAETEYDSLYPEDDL
Description: The Multifunctional enzyme marker M200PRO detected the light scattering process, and the excitation light of the instrument was adjusted to 350 nm and the emission light to 350 nm. 3.3 μM of Fibrinogen in the control group, 3.3 μM of Fibrinogen and 2.5 U/ml of thrombin in the model group. The above systems were all set up in 20 mM Tris-HCl, pH 7.4, 150 mM NaCl ±[…] CaCl2 solution in a 100 μl/well (96-well plate). After 1 h of gel-like fibrin formation, 100 μl, 2 nM tissue plasminogen activator tPA and different doses of Fibrinogen like protein 1 (FGL1) were added. Kinetic curves were measured at 25° C. by detecting A350 absorption values every minute.
The control group was a reagent control, and the administered groups were 2 nM tissue plasminogen activator tPA, different doses of Fibrinogen like protein 1 (FGL1) alone groups, and groups in combination with other reagents. Kinetic curves were measured at 37° C. using a multifunctional enzyme marker M200PRO to detect the absorption values of the 510 nm excitation light every minute.
The Multifunctional enzyme marker M200PRO detected the light scattering process, and the excitation light of the instrument was adjusted to 350 nm and the emission light to 350 nm. […] Kinetic curves were measured at 25° C. by detecting A350 absorption values every minute. […]

[2] = system: thrombin-induced thrombosis model; experiment: thrombin-induced thrombosis model, plasmid injection and overexpression; assay type: in vivo, BALB/c mice; details: expression plasmid 100 μg per mouse tail vein, overexpression; thrombin 15 U per mouse; deaths within 1 hour
Description: Construct FGL1 expression plasmid with pcDNA3.1 vector, inject the plasmid into the tail vein of mice, 100 μg/2 ml PBS/per mouse, extract the plasma of the mice after 18 hours, and detect the overexpressed FGL1 content in the plasma by ELISA;
Thrombin 15 U/200 μl PBS/per mouse was injected into the tail vein for modelling, and the number of mice in each group that died within 1 hour after injection was recorded to calculate the protection rate of Fibrinogen like protein 1 (FGL1) overexpression.
The specific operation methods were the same as those described previously for the protective effects of overexpression of FGL1.

fibrin aggregates [3] = target: T1, fibrin aggregates; experiment: synergistic dissolving of fibrin aggregates with urokinase uPA; assay type: biochemical
fibrin [4] = target: T2, fibrin (Homo sapiens, UniProt P02671); experiment: fibrin aggregation, light scattering / A350 kinetic curve; assay type: biochemical; details: 3.3 μM Fibrinogen, 2.5 U/ml thrombin, ±5 mM CaCl2, 25° C., different doses
T2 construct: Thrombin cleaves the α and γ subunits of fibrin, exposing fibrinopeptide A (Knob A) and fibrinopeptide B (Knob B)
T2 sequence (P02671 36-866 limits assumed): T1 sequence (P02671 36-866 limits assumed)
T2 sequence (P02675 45-491 partner limits assumed): T1 sequence (P02675 45-491 partner limits assumed)
T2 sequence (P02679 27-453 partner): T1 sequence (P02679 27-453 partner)
Description: Multifunctional enzyme marker M200PRO detected the light scattering process, and the instrument excitation light was adjusted to 350 nm and emission light to 350 nm. 3.3 μM of Fibrinogen in the control group, 3.3 μM of Fibrinogen and 2.5 U/ml of thrombin in the model group and 3.3 μM of Fibrinogen and 2.5 U/ml thrombin and different dose of Fibrinogen related protein 1 (FGL1). All the above systems were in 20 mM Tris-HCl, pH 7.4, 150 mM NaCl±5 mM CaCl2 solution in a 100 μl/well (96-well plate). The kinetic curve was measured by assaying every minute at 25° C.
Multifunctional enzyme marker M200PRO detected the light scattering process; the instrument excitation light was adjusted to 350 nm, and the emission light was adjusted to 350 nm. 3.3 μM of Fibrinogen in the control group, 3.3 μM of Fibrinogen and 2.5 U/ml of thrombin in the model group, and 3.3 μM of Fibrinogen and 2.5 U/ml thrombin and different dose of fibrinogen structural domain (FD). The above systems were in 20 mM Tris-HCl, pH 7.4, 150 mM NaCl±5 mM CaCl2 solution. The kinetic curves were measured at 25° C. by detecting the A350 absorption values every minute.

mouse thrombus = mouse thrombus morphology observed by scanning electron microscopy; assay type: in vivo, mice; details: FIG. 14
fibrin [5] = target: T2, fibrin; experiment: fibrin aggregation observed by scanning electron microscopy; assay type: biochemical; details: FIG. 12
aggregated fibrin = experiment: cleavage of aggregated fibrin; assay type: biochemical; details: FIG. 27
Excerpt: Mutation of certain key sites in this protein's amino acid sequence can also enhance its function of inhibiting thrombosis.

FGL1: Fibrinogen like protein 1, amino acid sequence SEQ ID No. 1, expressed in eukaryotic cells; given as pcDNA3.1 expression plasmid in Example 6
dissolving fibrin aggregates together with tPA (fibrin aggregates [1]): synergistically dissolving fibrin aggregates
survival rate of mice [2]: significantly increasing the survival rate of mice
dissolving fibrin aggregates together with urokinase uPA (fibrin aggregates [3]; 800 U/ml uPA plus different doses of FGL1): synergistically dissolving fibrin aggregates
effect on fibrin aggregation (fibrin [4]): inhibits fibrin aggregation

B1: FD: Fibrinogen structural domain protein of FGL1, positions 48-290 of SEQ ID No. 1 (SEQ ID No. 3) (protein)
chain: TVIDLGSKRQYADCSEIFNDGYKLSGFYKIKPLQSPAEFSVYCDMSDGGGWTVIQRRSDGSENFNRGWKDYENGFGNFVQKHGEYWLGNKNLHFLTTQEDYTLKIDLADFEKNSRYAQYKNFKVGDEKNFYELNIGEYSGTAGDSLAGNFHPEVQWWASHQRMKFSTWDRDHDNYEGNCAEEDQSGWWFNRCHSANLNGVYYSGPYTAKTDNGIVWYTWHGWWYSLKSVVMKIRPNDFIPNVI
dissolving fibrin aggregates together with tPA (fibrin aggregates [1]): synergistically dissolving fibrin aggregates
survival rate of mice [2]: significant improvement of survival rate in mice
morphology of mouse thrombus (mouse thrombus): becomes thinner and looser in structure
structure of thrombus formed by fibrin aggregation (fibrin [5]): becomes thinner and looser in structure
dissolving fibrin aggregates together with urokinase uPA (fibrin aggregates [3]; 2800 U/ml uPA plus different doses of FD (800 U/ml in thrombus lysis)): synergistically dissolving fibrin aggregates
effect on fibrin aggregation (fibrin [4]): inhibits fibrin aggregation

B2: FD mutant: FD with tryptophan at key positions 204 and 269 mutated to alanine (protein)
chain: B1 chain with W157A, W222A
cleavage of aggregated fibrin, mutant compared to unmutated form (aggregated fibrin): significantly enhanced
